# Reference: US20240270846A1 (published 2024)
# Molecular target: T1, CD3 epsilon homodimer protein (UniProt P07766 23-126)
# T1 construct: Construct of the homodimer protein is not described; also called CD3 (CD3 epsilon)
# Assay: SPR (Biacore T200), CD3 epsilon homodimer on CM4 chip, one-arm antibody as analyte; ratio to unaltered CE115HA000;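 also: surface plasmon resonance run at 25 °C with HBS-EP+ as running buffer, CD3 epsilon homodimer attached by amine coupling, antibody passed over as analyte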
# T1 sequence (P07766 23-126): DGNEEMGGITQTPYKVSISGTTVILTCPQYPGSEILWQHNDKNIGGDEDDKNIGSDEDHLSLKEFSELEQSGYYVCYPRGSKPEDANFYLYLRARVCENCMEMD
row,Binder,KD ratio (KD value of CE115HA000/KD value of the altered form)
1,"CE115HA000 G98R one-arm antibody (antibody, human IgG1, kappa, L234A L235A, N297A, name in Kabat numbering, one-arm antibody) heavy: QVQLVESGGGVVQPGRSLRLSCAASGFTFSNAWMHWVRQAPGKGLEWVAQIKAKSNNYATYYAESVKGRFTISRDDSKNSLYLQMNSLKTEDTAVYYCRYVHYRAYYGVDAWGQGTTVTVSSASTKGPSVFPLAPSSKSTSGGTAALGCLVKDYFPEPVTVSWNSGALTSGVHTFPAVLQSSGLYSLSSVVTVPSSSLGTQTYICNVNHKPSNTKVDKKVEPKSCDKTHTCPPCPAPEAAGGPSVFLFPPKPKDTLMISRTPEVTCVVVDVSHEDPEVKFNWYVDGVEVHNAKTKPREEQYASTYRVVSVLTVLHQDWLNGKEYKCKVSNKALPAPIEKTISKAKGQPREPQVYTLPPSRCELTKNQVSLSCAVKGFYPSDIAVEWESNGQPENNYKTTPPVLDSDGSFFLVSKLTVDKSRWQQGNVFSCSVMHEALHNHYTQKSLSLSPDYKDDDDK EPKSSDKTHTCPPCPAPELLGGPSVFLFPPKPKDTLMISRTPEVTCVVVDVSHEDPEVKFNWYVDGVEVHNAKTKPREEQYNSTYRVVSVLTVLHQDWLNGKEYKCKVSNKALPAPIEKTISKAKGQPREPQVCTLPPSRDELTKNQVSLWCLVKGFYPSDIAVEWESNGQPENNYKTTPPVLDSDGSFFLYSKLTVDKSRWQQGNVFSCSVMHEALHNRYTQKSLSLSP light: DIVMTQSPLSLPVTPGEPASISCRSSQSLVHSNRNTYLHWYQQKPGQAPRLLIYKVSNRFSGVPDRFSGSGSGTDFTLKISRVEAEDVGVYYCGQGTQVPYTFGQGTKLEIKRTVAAPSVFIFPPSDEQLKSGTASVVCLLNNFYPREAKVQWKVDNALQSGNSQESVTEQDSKDSTYSLSSTLTLSKADYEKHKVYACEVTHQGLSSPVTKSFNRGEC",4.69
2,"CE115HA000 G98T one-arm antibody (antibody, human IgG1, kappa, L234A L235A, N297A, name in Kabat numbering, one-arm antibody) heavy: QVQLVESGGGVVQPGRSLRLSCAASGFTFSNAWMHWVRQAPGKGLEWVAQIKAKSNNYATYYAESVKGRFTISRDDSKNSLYLQMNSLKTEDTAVYYCRYVHYTAYYGVDAWGQGTTVTVSSASTKGPSVFPLAPSSKSTSGGTAALGCLVKDYFPEPVTVSWNSGALTSGVHTFPAVLQSSGLYSLSSVVTVPSSSLGTQTYICNVNHKPSNTKVDKKVEPKSCDKTHTCPPCPAPEAAGGPSVFLFPPKPKDTLMISRTPEVTCVVVDVSHEDPEVKFNWYVDGVEVHNAKTKPREEQYASTYRVVSVLTVLHQDWLNGKEYKCKVSNKALPAPIEKTISKAKGQPREPQVYTLPPSRCELTKNQVSLSCAVKGFYPSDIAVEWESNGQPENNYKTTPPVLDSDGSFFLVSKLTVDKSRWQQGNVFSCSVMHEALHNHYTQKSLSLSPDYKDDDDK EPKSSDKTHTCPPCPAPELLGGPSVFLFPPKPKDTLMISRTPEVTCVVVDVSHEDPEVKFNWYVDGVEVHNAKTKPREEQYNSTYRVVSVLTVLHQDWLNGKEYKCKVSNKALPAPIEKTISKAKGQPREPQVCTLPPSRDELTKNQVSLWCLVKGFYPSDIAVEWESNGQPENNYKTTPPVLDSDGSFFLYSKLTVDKSRWQQGNVFSCSVMHEALHNRYTQKSLSLSP light: DIVMTQSPLSLPVTPGEPASISCRSSQSLVHSNRNTYLHWYQQKPGQAPRLLIYKVSNRFSGVPDRFSGSGSGTDFTLKISRVEAEDVGVYYCGQGTQVPYTFGQGTKLEIKRTVAAPSVFIFPPSDEQLKSGTASVVCLLNNFYPREAKVQWKVDNALQSGNSQESVTEQDSKDSTYSLSSTLTLSKADYEKHKVYACEVTHQGLSSPVTKSFNRGEC",0.93
3,"CE115HA000 G98S one-arm antibody (antibody, human IgG1, kappa, L234A L235A, N297A, name in Kabat numbering, one-arm antibody) heavy: QVQLVESGGGVVQPGRSLRLSCAASGFTFSNAWMHWVRQAPGKGLEWVAQIKAKSNNYATYYAESVKGRFTISRDDSKNSLYLQMNSLKTEDTAVYYCRYVHYSAYYGVDAWGQGTTVTVSSASTKGPSVFPLAPSSKSTSGGTAALGCLVKDYFPEPVTVSWNSGALTSGVHTFPAVLQSSGLYSLSSVVTVPSSSLGTQTYICNVNHKPSNTKVDKKVEPKSCDKTHTCPPCPAPEAAGGPSVFLFPPKPKDTLMISRTPEVTCVVVDVSHEDPEVKFNWYVDGVEVHNAKTKPREEQYASTYRVVSVLTVLHQDWLNGKEYKCKVSNKALPAPIEKTISKAKGQPREPQVYTLPPSRCELTKNQVSLSCAVKGFYPSDIAVEWESNGQPENNYKTTPPVLDSDGSFFLVSKLTVDKSRWQQGNVFSCSVMHEALHNHYTQKSLSLSPDYKDDDDK EPKSSDKTHTCPPCPAPELLGGPSVFLFPPKPKDTLMISRTPEVTCVVVDVSHEDPEVKFNWYVDGVEVHNAKTKPREEQYNSTYRVVSVLTVLHQDWLNGKEYKCKVSNKALPAPIEKTISKAKGQPREPQVCTLPPSRDELTKNQVSLWCLVKGFYPSDIAVEWESNGQPENNYKTTPPVLDSDGSFFLYSKLTVDKSRWQQGNVFSCSVMHEALHNRYTQKSLSLSP light: DIVMTQSPLSLPVTPGEPASISCRSSQSLVHSNRNTYLHWYQQKPGQAPRLLIYKVSNRFSGVPDRFSGSGSGTDFTLKISRVEAEDVGVYYCGQGTQVPYTFGQGTKLEIKRTVAAPSVFIFPPSDEQLKSGTASVVCLLNNFYPREAKVQWKVDNALQSGNSQESVTEQDSKDSTYSLSSTLTLSKADYEKHKVYACEVTHQGLSSPVTKSFNRGEC",0.98
4,"CE115HA000 G98Y one-arm antibody (antibody, human IgG1, kappa, L234A L235A, N297A, name in Kabat numbering, one-arm antibody) heavy: QVQLVESGGGVVQPGRSLRLSCAASGFTFSNAWMHWVRQAPGKGLEWVAQIKAKSNNYATYYAESVKGRFTISRDDSKNSLYLQMNSLKTEDTAVYYCRYVHYYAYYGVDAWGQGTTVTVSSASTKGPSVFPLAPSSKSTSGGTAALGCLVKDYFPEPVTVSWNSGALTSGVHTFPAVLQSSGLYSLSSVVTVPSSSLGTQTYICNVNHKPSNTKVDKKVEPKSCDKTHTCPPCPAPEAAGGPSVFLFPPKPKDTLMISRTPEVTCVVVDVSHEDPEVKFNWYVDGVEVHNAKTKPREEQYASTYRVVSVLTVLHQDWLNGKEYKCKVSNKALPAPIEKTISKAKGQPREPQVYTLPPSRCELTKNQVSLSCAVKGFYPSDIAVEWESNGQPENNYKTTPPVLDSDGSFFLVSKLTVDKSRWQQGNVFSCSVMHEALHNHYTQKSLSLSPDYKDDDDK EPKSSDKTHTCPPCPAPELLGGPSVFLFPPKPKDTLMISRTPEVTCVVVDVSHEDPEVKFNWYVDGVEVHNAKTKPREEQYNSTYRVVSVLTVLHQDWLNGKEYKCKVSNKALPAPIEKTISKAKGQPREPQVCTLPPSRDELTKNQVSLWCLVKGFYPSDIAVEWESNGQPENNYKTTPPVLDSDGSFFLYSKLTVDKSRWQQGNVFSCSVMHEALHNRYTQKSLSLSP light: DIVMTQSPLSLPVTPGEPASISCRSSQSLVHSNRNTYLHWYQQKPGQAPRLLIYKVSNRFSGVPDRFSGSGSGTDFTLKISRVEAEDVGVYYCGQGTQVPYTFGQGTKLEIKRTVAAPSVFIFPPSDEQLKSGTASVVCLLNNFYPREAKVQWKVDNALQSGNSQESVTEQDSKDSTYSLSSTLTLSKADYEKHKVYACEVTHQGLSSPVTKSFNRGEC",2.75

# Now from value to binder:
row,KD ratio (KD value of CE115HA000/KD value of the altered form),Binder
1,7.29,"CE115HA000 G100bE one-arm antibody (antibody, human IgG1, kappa, L234A L235A, N297A, name in Kabat numbering, one-arm antibody) heavy: QVQLVESGGGVVQPGRSLRLSCAASGFTFSNAWMHWVRQAPGKGLEWVAQIKAKSNNYATYYAESVKGRFTISRDDSKNSLYLQMNSLKTEDTAVYYCRYVHYGAYYEVDAWGQGTTVTVSSASTKGPSVFPLAPSSKSTSGGTAALGCLVKDYFPEPVTVSWNSGALTSGVHTFPAVLQSSGLYSLSSVVTVPSSSLGTQTYICNVNHKPSNTKVDKKVEPKSCDKTHTCPPCPAPEAAGGPSVFLFPPKPKDTLMISRTPEVTCVVVDVSHEDPEVKFNWYVDGVEVHNAKTKPREEQYASTYRVVSVLTVLHQDWLNGKEYKCKVSNKALPAPIEKTISKAKGQPREPQVYTLPPSRCELTKNQVSLSCAVKGFYPSDIAVEWESNGQPENNYKTTPPVLDSDGSFFLVSKLTVDKSRWQQGNVFSCSVMHEALHNHYTQKSLSLSPDYKDDDDK EPKSSDKTHTCPPCPAPELLGGPSVFLFPPKPKDTLMISRTPEVTCVVVDVSHEDPEVKFNWYVDGVEVHNAKTKPREEQYNSTYRVVSVLTVLHQDWLNGKEYKCKVSNKALPAPIEKTISKAKGQPREPQVCTLPPSRDELTKNQVSLWCLVKGFYPSDIAVEWESNGQPENNYKTTPPVLDSDGSFFLYSKLTVDKSRWQQGNVFSCSVMHEALHNRYTQKSLSLSP light: DIVMTQSPLSLPVTPGEPASISCRSSQSLVHSNRNTYLHWYQQKPGQAPRLLIYKVSNRFSGVPDRFSGSGSGTDFTLKISRVEAEDVGVYYCGQGTQVPYTFGQGTKLEIKRTVAAPSVFIFPPSDEQLKSGTASVVCLLNNFYPREAKVQWKVDNALQSGNSQESVTEQDSKDSTYSLSSTLTLSKADYEKHKVYACEVTHQGLSSPVTKSFNRGEC"
2,6.25,"CE115HA000 G100bD one-arm antibody (antibody, human IgG1, kappa, L234A L235A, N297A, name in Kabat numbering, one-arm antibody) heavy: QVQLVESGGGVVQPGRSLRLSCAASGFTFSNAWMHWVRQAPGKGLEWVAQIKAKSNNYATYYAESVKGRFTISRDDSKNSLYLQMNSLKTEDTAVYYCRYVHYGAYYDVDAWGQGTTVTVSSASTKGPSVFPLAPSSKSTSGGTAALGCLVKDYFPEPVTVSWNSGALTSGVHTFPAVLQSSGLYSLSSVVTVPSSSLGTQTYICNVNHKPSNTKVDKKVEPKSCDKTHTCPPCPAPEAAGGPSVFLFPPKPKDTLMISRTPEVTCVVVDVSHEDPEVKFNWYVDGVEVHNAKTKPREEQYASTYRVVSVLTVLHQDWLNGKEYKCKVSNKALPAPIEKTISKAKGQPREPQVYTLPPSRCELTKNQVSLSCAVKGFYPSDIAVEWESNGQPENNYKTTPPVLDSDGSFFLVSKLTVDKSRWQQGNVFSCSVMHEALHNHYTQKSLSLSPDYKDDDDK EPKSSDKTHTCPPCPAPELLGGPSVFLFPPKPKDTLMISRTPEVTCVVVDVSHEDPEVKFNWYVDGVEVHNAKTKPREEQYNSTYRVVSVLTVLHQDWLNGKEYKCKVSNKALPAPIEKTISKAKGQPREPQVCTLPPSRDELTKNQVSLWCLVKGFYPSDIAVEWESNGQPENNYKTTPPVLDSDGSFFLYSKLTVDKSRWQQGNVFSCSVMHEALHNRYTQKSLSLSP light: DIVMTQSPLSLPVTPGEPASISCRSSQSLVHSNRNTYLHWYQQKPGQAPRLLIYKVSNRFSGVPDRFSGSGSGTDFTLKISRVEAEDVGVYYCGQGTQVPYTFGQGTKLEIKRTVAAPSVFIFPPSDEQLKSGTASVVCLLNNFYPREAKVQWKVDNALQSGNSQESVTEQDSKDSTYSLSSTLTLSKADYEKHKVYACEVTHQGLSSPVTKSFNRGEC"
